Experiment [1] relates to Ramos tumor cells. The note with it: previous report, Kuhne et al 2013; cited from earlier work.
The test system of experiment [2] is Ramos tumor cells. The experiment can be described thus: Apoptosis assay (annexin V / propidium iodide flow cytometry). To be noted: annexin V and propidium iodide double positive, 24 or 72 hours. The experiment is classed as cell-based, human. On the procedure:
The ability of an i-body of the invention to induce apoptosis in Ramos tumor cells (a human Burkitt's lymphoma cell line) was examined in an apoptosis assay according to the methods as described in Mishra M et al (2011) J Cell Mol Med 15(11):2462-77. I-bodies were incubated with Ramos cells and examined by flow cytometry after 24 or 72 hours. The cells were stained for annexin V and propidium iodide which are classic markers for apoptosis. Cells which were double positive were assessed to have become apoptotic.
(A flow cytometer gives signals particle by particle.)

A further experiment concerns CCRF-CEM cells. The experiment can be described thus: Immunohistochemistry staining of tumours in spleen and liver of SCID/bg mice. To be noted: 130 μg/ml. The protocol:
Tissues were fixed in 10% neutral buffered formalin overnight and subsequently transferred into tissue cassettes and placed in 70% ethanol. The tissues were then paraffin embedded. Slides containing 4 μm sections were deparaffinized and hydrated by incubating them in two changes of xylene for five min each, followed by two changes of 100% ethanol for 3 min each, 70% ethanol for 2 min, 50% ethanol for 2 min, and distilled water for 5 min. Antigen retrieval was performed by incubating the slides in 10 mM Citric acid solution (pH 6.0) in an 80° C. oven overnight. The slides were subsequently washed in PBS and permeabilized in 10% methanol containing 0.4% H2O2 for 30 min. […] All slides were subsequently stained with biotinylated anti-His tag antibodies (Miltenyi Biotech) and developed using an HRP-DAB cell and tissue staining kit according to the manufacturer's instructions (R&D systems).

Another experiment deals with CCL2 and CCL5 protein. The experiment can be described thus: CCL2, CCL5, CXCL12 ELISA of fibroblast conditioned supernatants. To be noted: 48 hours. It counts as cell-based, human. An excerpt: Various reports indicate that CXCR4 signals in conjunction with other chemokine receptors, including CCR2.
Background: ELISA stands for enzyme-linked immunosorbent assay.

Experiment [3] deals with normal and IPF lung fibroblasts. Kind of experiment: Wound healing invasion assay of lung fibroblasts. The experiment is classed as cell-based, human. The note with it: 130 μg/ml. The protocol:
To determine the role of CXCR4 and CXCL12 in fibroblast invasion, normal and IPF lung fibroblasts were utilized in a wound healing invasion assay. ImageLock 96 well plates (Essen Bioscience) were coated with 50 μg/ml of Basement membrane extract (BME; Trevigen) for one hour at room temperature. Normal, and fibroblasts generated from lung biopsies of idiopathic pulmonary fibrosis (IPF) patients showing slow progression or rapid progression of the disease were plated (36,000 cells per well) on the BME-coated plates and incubated overnight. […] The BME was allowed to polymerize by incubating the plate at 37° C. for 15 minutes. The plates were then inserted into an IncuCyte Zoom imaging system and images were acquired every 2 hours for approximately 50 hours. Invasion was quantified using IncuCyte software (Essen Bioscience).

Experiment [4] in a line: Laser induced choroidal neovascularisation model. It counts as in vivo, mouse. The note with it: intravitreal, 1 μl up to 20 mg/ml. On the procedure:
The laser induced choroidal neovascularisation (CNV) is a well characterised and accepted model of choroidal neovascularisation (Fletcher E L et al. (2011) Prog Mol Biol Transl Sci 100:211-286). It is also a rapid method for determining the efficacy of potential treatments that target angiogenesis and fibrosis. Briefly, up to four laser spots are applied to the posterior eye using a continuous wave photocoagulation laser ([…] diode). The laser energy is high enough to create a break in Bruch's membrane. During the following 7-14 days, growth of blood vessels from the choroid into the retina occurs, and is quantified either immuocytochemically, or using fluorescein angiography.
Mice were treated as below: • Group 1 (n=10): laser both eyes-vehicle in one eye; i-body in the other • Group 2 (n=10): Laser one eye (no i-body); other eye unlasered. • The i-body drug was injected intravitreally in 1 μl volume at a concentration up to 20 mg/ml.
The expression of genes associated with angiogenesis and fibrosis was examined. Total RNA was isolated from the retina and RPE/choroidal samples using commercial spin columns (RNeasy, Qiagen, Valencia Calif.). A PCR gene array was used to assess the expression of 84 genes involved angiogenesis or fibrosis (Qiagen). Briefly, total RNA samples from untreated, laser treated eyes and untreated fellow eyes (n=9 each group, each 25 ng) were pooled within their respective treatment groups (3 independent experiments containing 3 pooled samples), reversed transcribed (RT2 first strand, Qiagen) and then underwent pre-amplification of the cDNA target templates (RT2 pre-AMP, Qiagen). Samples were added to a commercial mastermix (RT2 SYBR green mastermix, Qiagen) and amplified for 40 cycles (ABI 7900HT, Life Technologies, Grand Island N.Y.). Three independent arrays were performed for each treatment group. The data were analysed using delata delta Ct (ΔΔCt), expressed as fold change and regulation assessed using an unpaired t-test.

In experiment [5] the test system is ACTA2, COL1A1, COL3A1 and FN1 transcripts. Kind of experiment: qPCR of pro-fibrotic transcripts in lung fibroblasts. To be noted: 130 μg/ml, 48 hours. It counts as cell-based, human. The protocol:
After 48 hours, RNA was extracted using Trizol reagent and reverse transcribed into cDNA using superscript II reverse transcriptase (Life technology) as previously described (Trujillo et al Sci Transl Med 2010 2; 57ra82). Complementary DNA (cDNA) was subsequently loaded into a Taqman plate and gene expression analysis were performed using predesigned primers for COL1A1, COL3A1, FN1, and aSMA. All Taqman analysis was performed using an Applied Bio system's Viia 7 instrument (Life technology). The results were then exported, normalized to 18s RNA expression and fold change analysis were calculated using Data Assist software (Life technologies).
Background: Real-time PCR tracks product formation cycle by cycle.

In a further experiment the target is CXCR4 (Homo sapiens, UniProt P61073). The experiment can be described thus: β-arrestin BRET assay, antagonist mode with 100 nM SDF-1. It counts as cell-based. To be noted: various concentrations. Also on record: expressed in transfected cells; host or cells: HEK293FT. In outline: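 Ten concentrations of i-body with 100 nM SDF-1 were applied to transiently transfected HEK293FT cells carrying CXCR4/Rluc8 donor and β-arrestin2/Venus acceptor. Emissions at 400-475 and 520-540 nm were read at 37 °C, and the vehicle-subtracted ratio gave the BRET signal (four independent duplicate experiments).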
CXCR4, sequence (P61073 whole entry): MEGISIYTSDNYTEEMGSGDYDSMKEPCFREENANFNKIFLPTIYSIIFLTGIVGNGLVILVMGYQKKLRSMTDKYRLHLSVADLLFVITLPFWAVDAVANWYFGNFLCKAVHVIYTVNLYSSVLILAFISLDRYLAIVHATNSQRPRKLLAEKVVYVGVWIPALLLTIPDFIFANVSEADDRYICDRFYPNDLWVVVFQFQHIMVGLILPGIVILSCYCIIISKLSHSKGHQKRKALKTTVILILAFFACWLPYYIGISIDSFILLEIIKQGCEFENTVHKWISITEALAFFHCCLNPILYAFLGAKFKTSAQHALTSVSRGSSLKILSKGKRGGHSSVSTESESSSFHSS

The nature of experiment [6]: Binding to null lipoparticles (off-target control). The protocol: (FIGS. 2A-2C, 5A-5C, 11A-11D, 17A-17B) Kinetic binding analysis of selected i-bodies with immobilized CXCR4 lipoparticles were performed at 25° C. using Biacore T200 instrument (GE Healthcare, Uppsala, Sweden). Streptavidin immobilization was performed in 1×HBS-P+ running buffer (10 mM HEPES, 150 mM NaCl, 0.05% [v/v] Tween-20). Amine coupling kit (GE Healthcare) and the instructions therein were utilized for the attachment of Streptavidin (Sigma; diluted to 100 μg/mL in 10 mM sodium acetate buffer pH 4.5) in all four channels on the sensor chip surface simultaneously, resulting in >6,000 RU of Streptavidin being coupled (1 RU=1 pg protein/mm^2). All binding experiments involving lipoparticles were performed with 1×HBS/BSA (10 mM HEPES, 150 mM NaCl, 1 mg/mL BSA) as instrument running buffer. Biotinylated CXCR4 lipoparticles (Integral Molecular, Cat #LEV-101B; 3.6 U/mL as described in WO 2005/042695) were typically diluted 1 in 20 in the running buffer and immobilized onto a Streptavidin containing channel by injecting at […] for 1,800 sec resulting in captured response levels of greater than 2,500 RU. […] In order to determine binding kinetics, serial dilutions (three-fold) of i-bodies diluted in 1×HBS/BSA were injected over immobilized lipoparticles with the association and dissociation phases monitored for 60 sec and 600 sec, respectively. […]

Experiment [7] deals with CCR5 positive lipoparticles (Homo sapiens, UniProt P51681). The experiment can be described thus: ELISA binding to CCR5 positive lipoparticles. The text has this:
The mutant i-body clones were also examined for binding to CCR5 positive lipoparticles (FIG. 7B).

Like-named read-outs stand apart in the source and are kept apart here.

CCR5 positive lipoparticles, sequence (P51681 whole entry): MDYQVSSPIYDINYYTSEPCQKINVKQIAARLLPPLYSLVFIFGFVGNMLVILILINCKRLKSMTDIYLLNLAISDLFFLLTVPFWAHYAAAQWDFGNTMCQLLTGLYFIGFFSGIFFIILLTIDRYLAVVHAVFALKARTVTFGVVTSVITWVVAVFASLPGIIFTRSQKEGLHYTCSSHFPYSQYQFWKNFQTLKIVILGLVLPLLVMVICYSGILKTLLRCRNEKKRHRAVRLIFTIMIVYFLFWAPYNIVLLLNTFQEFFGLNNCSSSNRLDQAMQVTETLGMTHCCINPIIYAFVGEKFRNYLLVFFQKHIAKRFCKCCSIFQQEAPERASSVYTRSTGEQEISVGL

As to MDX-1338: human anti-CXCR4 mAb, in the experiment with Ramos tumor cells [1], the “induction of apoptosis in Ramos cells” value is listed as “able to induce apoptosis”.

B1: AM3-114-6H: AM3-114 with 6 His tag, containing the N-terminal sequence EAEA (protein)
chain: EAEALQVDIVPYQGEISVGESKFFLCQVAGSLSGIRISWFSPNGEKLTPNQQRISVVWNDDSSSTLTIYNANIDDAGIYKCVVWRTGGYRHRYLVLGEATVNVKIFQ
modifications: left off: small tags and cut ends
B1: the “induction of apoptosis in Ramos cells” value in the experiment on Ramos tumor cells [2] is listed as “strongly induce apoptosis”. Moreover, in the experiment with CCRF-CEM cells, the “staining of CCRF-CEM cells in spleen and liver” value is “stained CCRF-CEM cells”. In the experiment with CCL2 and CCL5 protein, the “CCL2 protein in IPF fibroblast conditioned supernatants” value is “markedly increased”. Also, in experiment [3], the “invasion of rapid-IPF (fast progressor) lung fibroblasts” value is “two out three” and the “invasion of slow-IPF lung fibroblasts” value is reported as “inhibited invasion”. Besides, the “pathological angiogenesis / lesion size” value in experiment [4] is reported as “reduces pathological angiogenesis or lesion characteristics”. For the same molecule, the “ACTA2, COL1A1, COL3A1 and FN1 transcript expression in slow-IPF lung fibroblasts” value in [5] is “markedly reduced”.

B2: ADCX-272: CXCR4 binding i-body, SEQ ID NO: 14 (protein)
chain: LQVDIVPSQGEISVGESKFFLCQVAGHLEVRSISWFSPNGEKLTPNQQRISVVWNDDSSSTLTIYNANIDDAGIYKCVVEQRGRSQSYFSEATVNVKIFQ
B2: the β-arrestin activity result in the experiment with CXCR4 is reported as “some degree of inhibition”. Further, the “binding to null lipoparticles” value in [6] is “very little binding”. Also, in [7], the “binding to CCR5 positive lipoparticles” value was “very little binding”.
